Tests used:
Settings in all cases: source organism: Vibrio cholerae
[1] = biological target: HLA-C*07:02; test: IEDB peptide-MHC binding, purified MHC/direct/fluorescence; filed as Kd, often an IC50 or EC50 that approximates it; ≥ and ≤ were set here for values at or beyond the usual limits of such assays
[2] = biological target: HLA-A*30:02; test: IEDB peptide-MHC binding, purified MHC/competitive/fluorescence; filed as Kd, often an IC50 or EC50 that approximates it; ≥ and ≤ were set here for values at or beyond the usual limits of such assays
[3] = biological target: HLA-B*18:01; test: as above
[4] = biological target: HLA-A*02:19; test: as above
[5] = biological target: HLA-A*66:01; test: as above
[6] = biological target: HLA-A*03:01; test: as above
[7] = biological target: HLA-B*44:02; test: as above
[8] = biological target: HLA-B*46:01; test: as above
[9] = biological target: HLA-A*11:01; test: as above
[10] = biological target: HLA-A*24:03; test: as above
[11] = biological target: HLA-B*57:01; test: as above
[12] = biological target: HLA-B*14:02; test: as above
[13] = biological target: HLA-A*26:01; test: as above
[14] = biological target: HLA-A*01:01; test: as above
[15] = biological target: HLA-B*15:01; test: as above
[16] = biological target: HLA-A*02:01; test: as above
[17] = biological target: HLA-B*40:01; test: as above
[18] = biological target: HLA-B*51:01; test: as above
[19] = biological target: HLA-B*07:02; test: as above
[20] = biological target: HLA-B*58:01; test: as above
[21] = biological target: HLA-B*08:01; test: as above
[22] = biological target: HLA-A*23:01; test: as above
[23] = biological target: HLA-B*15:17; test: as above
[24] = biological target: HLA-A*02:03; test: as above
[25] = biological target: HLA-B*27:05; test: as above
[26] = biological target: HLA-A*02:12; test: as above
[27] = biological target: HLA-A*29:02; test: as above
[28] = biological target: HLA-A*68:02; test: as above
[29] = biological target: HLA-B*53:01; test: as above

TRAPAPFPL
Kd [1]: 0.045 µM
Kd [2]: ≥ 5 µM
Kd [3]: ≥ 20 µM
Kd [4]: ≥ 20 µM
Kd [5]: ≥ 5 µM
Kd [6]: ≥ 20 µM
Kd [7]: ≥ 5 µM
Kd [8]: ≥ 20 µM
Kd [9]: ≥ 5 µM
Kd [10]: ≥ 20 µM
Kd [11]: ≥ 20 µM
Kd [12]: 0.565 µM
Kd [13]: ≥ 20 µM
Kd [14]: ≥ 5 µM
Kd [15]: ≥ 20 µM
Kd [16]: ≥ 20 µM
Kd [17]: ≥ 5 µM
Kd [18]: ≥ 20 µM
Kd [19]: ≥ 5 µM
Kd [20]: ≥ 5 µM
Kd [21]: ≥ 5 µM
Kd [22]: 3.5 µM
Kd [23]: ≥ 20 µM
Kd [24]: ≥ 20 µM
Kd [25]: 0.0123 µM
Kd [26]: ≥ 20 µM
Kd [27]: ≥ 20 µM
Kd [28]: 0.13 µM
Kd [29]: ≥ 5 µM

From the Immune Epitope Database (IEDB)
